According to the DeepSol protein solubility set:

Experiment: soluble on expression in E. coli; label from the status in PepcDB or PDB records

Sequence | soluble on expression in E. coli
MGSDKIHHHHHHMLLKLLHYLRCPQCRSQLSLSEATVGDWVEQGQLLCTQCRRTYAITKGIAYLYVENEEWKQLAAEAAGWVQMAKDAGCYDQTGIDIDFRLPYVPIPPWIDIARAFDIVLNIVRPRPGAMVVDIGAGRGWAAKQFAIRGCHAVAVEINDDDQIGLGRSLALMQHANVQYDLLIASSQRLPLADESFDIVFASAALHHSSCLATLLSEAARVLRRGGKLIAIHEPCIADHVTPEQDAPNIAQETAYNIHESRPKLDDYRHALRHAGLQELALFNHELYGTSIEDMQQWAANHWLSLLTADQIAMLRRKRTPTLWRTIRILRSRLQQLPDTTLVPPQDWMDQYYRHVGGSLTIIAQKP | not soluble
MDLPQEIETNMECPVCGSLLYLLTYDTDIPYEGRISIYTYQCKKCMYRKTEVYQEEEKNPVRITLKIESPEDLKTLVYRSRKADIYIPEIEASIDSAEYANGEITTVEGIIYRIGEKLDLLSYDDEEKEAVKEVRKKIDDIINGYFGSFTLIITDESGKSVIESEKAITEKILEHHHHHH | not soluble
MGILKSLFTLGKSFISQAEESIEETQGVRMLEQHIRDAKAELDKAGKSRVDLLARVKLSHDKLKDLRERKASLEARALEALSKNVNPSLINEVAEEIARLENLITAEEQVLSNLEVSRDGVEKAVTATAQRIAQFEQQMEVVKATEAMQRAQQAVTTSTVGASSSVSTAAESLKRLQTRQAERQARLDAAAQLEKVADGRDLDEKLAEAGIGGSNKSSAQDVLARLQRQQGELEHHHHHH | not soluble
MALTLAKNQTISLEKTAGTGLKKVSMGLGWDPEKASGFFGKLLGGGGGDIDLDASCIMLDADKKPLDLVWFRQLQSRDGAILHSGDNRTGEGAGDDETISVDLEKLPATVKYLVFTVNSFTGQNFEKVANAYCRIVDLGTRNELGRFDLSEKGQHTGVVMSYLSRTPSGWDFTAVGQATNGRTADDLVELAIGAVRA | not soluble
MGSDKIHHHHHHMSTFHPHPPTQNRLLAALPPIELDDLAPHLELVHLLPGDVLCKAGKQLSYAYFPTSSVISIHCLLENGTLSELTSVGREGMLGVSLFMGGEDTQSSATVQSAGYGYRLNAAFLLQEFNEGGMLQRLLLRYSHALVTEAAQNVICSRYHTAQQRLCRWLMSTWDRLGSQELVLTQESIASILGIRRESVTAIARRLQEAGTICYRRGRIMVNDQAALQRESCECYDIIKKEFDGVFDDVRVCEKARQNSINAANAL | not soluble
MVESWALTTPPIDIVNQYLFFIKRKTNYMATYYYALASQKFLLEEEPFEEVLKERRRDYGEKNKEIDFWQVIQPAFLNAPELAEAKAKAPEKNVAIVSTNKSFIVWVKLRLEYVLTGEFEAPSDAIPDPLASLDLEHHHHHH | not soluble
MSKNVGKLVKIWNESEVLVDRKSKFQARCCPLQNQKDIPSILQELTQNNKSVSKASHMHMYAWRTAEVSNNLHLQQEQKKKGNKANKSNNSHVNKSRNITVQPKNIEQGCADCGEAGAGQRLLTLLERANIFNVLVIVTRWYGGTPLGSSRFRHISTCAVETLKKGGFLP | soluble
MGSDKIHHHHHHMHIVDVTMFYAPASGGVRTYLQAKREILSQVPGLRTSLLVPGAERDSLGNHHTLPALRLPLGQGYRFPLRARLWRDALGALAPDIIEAGDPYVTAWAALDASQRLGVPVVGFYHSDLPRLMGDRFGRQVGRRLERYVVNLYRRFDSVLAPCQAMADRLRDWGIDQVRVQPLGVDLQRFHPSCKDPALREELGLAPETRLLVFIGRNSREKNIDILLATMKRLGNGYHLLLIGPGMPRQVPANVTSFDRCCGIYEVARVLASSDAMLHAGTRETFGLIAQEAMASGIPVVGAKAGALKENVPLGAGILCRPLDPEAMADACQSLFRNDVVASGRYARRYVELHFSWESAMKNLLEHYRQLCASSELHVIPQKA | not soluble
MGSSHHHHHHSSGENLYFQGHMDVLASGEKSRMLFERTKELFPGGVNSPVRAAVKPYPFYVKRGEGAYLYTVDGARIVDLVLAYGPLILGHKHPRVLEAVEEALARGWLYGAPGEAEVLLAEKILGYVKRGGMIRFVNSGTEATMTAIRLARGYTGRDLILKFDGCYHGSHDAVLVAAGSAAAHYGVPTSAGVPEAVARLTLVTPYNDVEALERVFAEYGDRIAGVIVEPVIANAGVIPPRREFLAALQRLSRESGALLILDEVVTGFRLGLEGAQGYFNIEGDIIVLGKIIGGGFPVGAVAGSREVMSLLTPQGKVFNAGTFNAHPITMAAGLATLKALEEEPVYSVSREAAKALEEAASEVLDRTGLPYTINRVESMMQLFIGVEEVSNAAQARKADKKFYVKLHEEMLRRGVFIAPSNLEAVFTGLPHQGEALEIAVEGLRSSLKTVLGS | soluble
SRRLVHDLLPPEVCSLLNPAAIYANNEISLRDVEVYGFDYDYTLAQYADALHPEIFSTARDILIEHYKSLLMKIDAFHYVQLGTAYRGLQPVPDEEVIELYGGTQHIPLYQMSGFYGKGPSIKQFMDIFSLPEMALLSCVVDYFLGHSLEFDQAHLYKDVTDAIRDVHVKGLMYQWIEQDMEKYILRGDETFAVLSRLVAHGKQLFLITNSPFSFVDKGMRHMVGPDWRQLFDVVIVQADKPSFFTDRRKPFRKLDEKGSLQWDRITRLEKGKIYRQGNLFDFLRLTEWRGPRVLYFGDHLYSDLADLMLRHGWRTGAIIPELEREIRIINTEQYMHSLTWQQALTGLLERMQTYQDAESRQVLAAWMKERQELRCITKALFNAQFGSIFRTFHNPTYFSRRLVRFSDLYMASLSCLLNYRVDFTFYPRRTPLQHEAPLWMDQLCTGCMKTPFLGDMAHIR | not soluble
MGSDKIHHHHHHMDKQLWEKAVAFHGHECPGLAIGFRACEAVQEKMGLKFSQDEEVVCVTENDACGADAVQVITGCSFGKGNLIYRGTGKMAFSFFSRNTGESMRIVLKPSSSEMDRQERQNYILTAPMDDVFEFKKPGFTLPKQARLFKTVICEVCGEGAPEHKMRLQEGKKVCLDCFEDYSRGY | not soluble
MREWINQSKIDLLAKEIGEENVPILVNIFLGELNDYQSKLVSDTVADKLGYLKEISHALKSSAASFGADRLCAKAVELDSRAKSGEMMDISLEVEHMLELLKQTHQCYSDLVH | not soluble
MSLTASAPRRPAAFLDRDGVINYNDHYVGTRERLRWMPGIAAAIRQLNAAGYYVFIITNQSGVARGMFSEDDVRALHRWMLDELNTQGARIDDVRFCPHHVEGTLDAYRVACEHRKPGPGMILDLAKTWPVDMTRSFVIGDSASDVEAAKAAGIPGFRFEGEDIDVFVKQVLIEMQRAAVSNEGHHHHHH | soluble
MMRTWQSKLHVTQHEVKLLVTCPEQGDVLKARLPPHARHPRALLTLLEGLSLYNGQPQRIALHVDERFRLTAGLFGDELWPGESPLVQYDVAHRARQCGRLSGIGDFRALRRGSP | not soluble
MGSDKIHHHHHHMQDIDDFLRQHRITEVEAIIPDMAGIARGKIIPRNKFETGESMRLPQAVMVQTVTGDYPEDGTLTGVTDPDMVCVADASTICLIPWAVDPTAQVIHDCVHFDGSPVEISPRYVLRRVLDLYRARGWKPVVAPELEFYLVDMNKDPDLPLRPPVGRTGRAETGRQSYSIEAVNEFDPLFEDIYEYCELQGLDIDTLIHEVGAAQMEINFLHGDALSLADQVFLFKRTVREAALRHNMYATFMAKPMESEPGSAMHIHQSVVDIETGRNLFIGASGDVTPMFRSYLAGLQKYTPALMPIFAPYINSYRRLSRFMAAPINVQWGYDNRTVGFRIPHSAAAARRIENRIPGVDCNPYLAIAGTLAAGYLGVTQGLEPTEPLASDGYSLPYQLPRNLEEGLTLMSACAPLAEMLGEKFVKAYLALKETEYEAFFRVISSWERRHLLLHV | not soluble
MIVTTTSGIQGKEIIEYIDIVNGEAIMGANIVRDLFASVRDVVGGRAGSYESKLKEARDIAMDEMKELAKQKGANAIVGVDVDYEVVRDGMLMVAVSGTAVRI | soluble
MQTKKAFLYVFNTMSDWEYGYLIAELNSGRYFKKDLAPLKVITVGANKEMITTMGGLRIKPDISLDECTLESKDLLILPGGTTWSEEIHQPILERIGQALKIGTIVAAICGATDALANMGYLDTRKHTSNNLEYTKMVCPNYKGEKFYELGPAVSDANLVTASGIAPLEFAMEVLKKIDVFTLDALHSWYNLNKTHKPEYFFQLMNSINK | not soluble
MLVCDFKTTCLNWVNVDDVVMGGVSNSAMQLTQDGTAVFAGNLSLENSGGFASVRTVLERRNYADFAGFRIRVKGDGKRYSFRARNDERFDGVVYKFDFETVPDEWMEIDLSFAGFIPSFRGRTLVDVPPLDSSNIVQIGLLVSNKQAGAFWLEIAWIEAYRADTVASSFRLEHHHHHH | soluble
